Target: T1, N-terminal HA-tagged VDAC2 (murine, UniProt Q60930 1-295)
T1 construct: also called HA-VDAC2; hemagglutinin (HA)-tagged version of VDAC2; not shown: N-terminal HA tag
T1 sequence (looked up): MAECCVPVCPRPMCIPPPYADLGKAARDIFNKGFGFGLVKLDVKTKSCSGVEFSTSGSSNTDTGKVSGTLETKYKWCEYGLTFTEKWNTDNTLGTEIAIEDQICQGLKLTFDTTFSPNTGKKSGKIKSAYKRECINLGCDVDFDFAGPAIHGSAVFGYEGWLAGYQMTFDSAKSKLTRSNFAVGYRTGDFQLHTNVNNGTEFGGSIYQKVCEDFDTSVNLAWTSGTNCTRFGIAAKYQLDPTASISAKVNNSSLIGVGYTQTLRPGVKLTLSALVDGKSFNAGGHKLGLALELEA
Experiment: anti-HA immunoprecipitation in 1% CHAPS, anti-BID immunoblot
Description: The activated form of BID, p15 tBID, was first examined in cells expressing only VDAC2 and not the other isoforms, VDAC1 or VDAC3. Mitochondria isolated from vdac1 -/- , vdac3 -/- mouse fibroblasts with or without retroviral transduction of N-terminal HA-tagged VDAC2 were incubated with in vitro transcribed, translated wild-type or mutant tBID (mIII.4, G94E) protein at 30° C. for 30 min, followed by anti-HA immunoprecipitation in 1% CHAPS buffer.

B1: mutant tBID mIII.4 (G94E) (other, UniProt P70444 60-195, looked up)
chain: GSQASRSFNQGRIEPDSESQEEIIHNIARHLAQIEDEMDHNIQPTLVRQLAAQFMNGSLSEEDKRNCLAKALDEVKTAFPRDMENDKAMLIMTMLLAKKVASHAPSLLRDVFHTTVNFINQNLFSYVRNLVRNEMD
notes: domain: p15 tBID; also called m111.4 mutant; m l 11.4
binding result: no binding

Reference: patent US20050085420A1, “Method of modulating apoptosis and compositions thereof” (priority 2003, published 2005)
